Data from IntAct's records for PubMed 28934384.

B1: Protein kinase C epsilon type (Homo sapiens), Q02156 (parent)
chain: MVVFNGLLKIKICEAVSLKPTAWSLRHAVGPRPQTFLLDPYIALNVDDSRIGQTATKQKTNSPAWHDEFVTDVCNGRKIELAVFHDAPIGYDDFVANCTIQFEELLQNGSRHFEDWIDLEPEGRVYVIIDLSGSSGEAPKDNEERVFRERMRPRKRQGAVRRRVHQVNGHKFMATYLRQPTYCSHCRDFIWGVIGKQGYQCQVCTCVVHKRCHELIITKCAGLKKQETPDQVGSQRFSVNMPHKFGIHNYKVPTFCDHCGSLLWGLLRQGLQCKVCKMNVHRRCETNVAPNCGVDARGIAKVLADLGVTPDKITNSGQRRKKLIAGAESPQPASGSSPSEEDRSKSAPTSPCDQEIKELENNIRKALSFDNRGEEHRAASSPDGQLMSPGENGEVRQGQAKRLGLDEFNFIKVLGKGSFGKVMLAELKGKDEVYAVKVLKKDVILQDDDVDCTMTEKRILALARKHPYLTQLYCCFQTKDRLFFVMEYVNGGDLMFQIQRSRKFDEPRSRFYAAEVTSALMFLHQHGVIYRDLKLDNILLDAEGHCKLADFGMCKEGILNGVTTTTFCGTPDYIAPEILQELEYGPSVDWWALGVLMYEMMAGQPPFEADNEDDLFESILHDDVLYPVWLSKEAVSILKAFMTKNPHKRLGCVASQNGEDAIKQHPFFKEIDWVLLEQKKIKPPFKPRIKTKRDVNNFDQDFTREEPVLTLVDEAIVKQINQEEFKGFSYFGEDLMP
partner: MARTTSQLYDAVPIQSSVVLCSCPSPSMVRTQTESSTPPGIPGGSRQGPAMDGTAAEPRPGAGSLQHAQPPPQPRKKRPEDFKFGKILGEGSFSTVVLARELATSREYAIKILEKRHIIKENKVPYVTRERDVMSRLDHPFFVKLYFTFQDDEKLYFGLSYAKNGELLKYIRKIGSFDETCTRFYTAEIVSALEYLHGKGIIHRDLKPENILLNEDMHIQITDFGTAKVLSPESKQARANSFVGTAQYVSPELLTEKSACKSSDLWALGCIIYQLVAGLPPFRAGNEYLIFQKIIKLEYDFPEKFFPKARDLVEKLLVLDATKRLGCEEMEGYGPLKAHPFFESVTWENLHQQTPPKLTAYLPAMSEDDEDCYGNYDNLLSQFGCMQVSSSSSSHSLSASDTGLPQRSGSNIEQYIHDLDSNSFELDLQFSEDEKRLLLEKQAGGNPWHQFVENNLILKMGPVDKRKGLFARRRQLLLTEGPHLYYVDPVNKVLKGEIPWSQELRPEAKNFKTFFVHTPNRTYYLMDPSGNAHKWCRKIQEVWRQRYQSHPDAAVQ
B2: Protein kinase C epsilon type (Homo sapiens), Q02156 (parent)
chain: B1 chain

Variants of: B1
Settings: with pdpk1_human PDPK1, O15530

Question: With E599K as the variant, how does the “effect of a mutation on the interaction” value read?
Answer: The value was “with no effect”.

Variants of: B2
Settings: with sin1_human MAPKAP1, Q9BPZ7
Sequence of sin1_human MAPKAP1, Q9BPZ7 (Q9BPZ7 whole entry): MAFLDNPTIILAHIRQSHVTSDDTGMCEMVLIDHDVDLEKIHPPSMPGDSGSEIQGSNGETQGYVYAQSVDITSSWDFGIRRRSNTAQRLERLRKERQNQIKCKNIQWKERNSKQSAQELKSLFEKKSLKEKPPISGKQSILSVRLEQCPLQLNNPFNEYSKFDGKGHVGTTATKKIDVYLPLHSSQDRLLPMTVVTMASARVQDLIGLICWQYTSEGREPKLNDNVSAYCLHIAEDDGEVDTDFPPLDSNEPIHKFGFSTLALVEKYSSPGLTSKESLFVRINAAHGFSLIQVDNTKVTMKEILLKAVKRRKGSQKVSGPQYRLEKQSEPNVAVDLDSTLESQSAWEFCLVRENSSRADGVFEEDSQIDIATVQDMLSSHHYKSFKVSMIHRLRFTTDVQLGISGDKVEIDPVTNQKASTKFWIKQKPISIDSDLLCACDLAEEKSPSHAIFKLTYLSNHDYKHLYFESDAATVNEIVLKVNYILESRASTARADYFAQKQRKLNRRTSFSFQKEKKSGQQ

Question: For E599K, which “effect of a mutation on the interaction” value is on record?
Answer: The value was “increasing interaction strength”.
